According to patent US20220372160A1:

Molecular target: recombinant mouse CD39 (mouse) (UniProt P55772)
Assay: BLI, Duha59 amine-coupled to AR2G biosensor, recombinant mouse CD39 as analyte, 1:1 model

Chain of recombinant mouse CD39 (mouse) (P55772 38-478 limits assumed): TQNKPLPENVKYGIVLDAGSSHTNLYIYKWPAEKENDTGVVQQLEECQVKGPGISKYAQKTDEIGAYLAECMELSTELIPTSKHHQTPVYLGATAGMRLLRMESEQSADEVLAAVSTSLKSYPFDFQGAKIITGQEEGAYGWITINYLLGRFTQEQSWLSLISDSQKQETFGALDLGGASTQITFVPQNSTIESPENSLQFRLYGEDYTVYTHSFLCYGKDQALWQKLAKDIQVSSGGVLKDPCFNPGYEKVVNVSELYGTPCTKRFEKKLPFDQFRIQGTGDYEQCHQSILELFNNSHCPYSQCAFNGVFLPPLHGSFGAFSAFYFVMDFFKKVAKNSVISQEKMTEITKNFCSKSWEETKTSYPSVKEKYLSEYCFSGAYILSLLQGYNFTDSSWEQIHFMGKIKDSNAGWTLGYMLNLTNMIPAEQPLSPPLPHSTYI

rat anti-mouse CD39 Duha59 clone (antibody)
Kd: 1.09 nM
